Measurements as given in paper PMC8240856 (The Journal of Cell Biology, 2021).
Where a chain is given by its changes, count along the chain named. Numbers in names are those of the source.

T1: His6-Vps4 (S. cerevisiae, UniProt P52917 1-437)
T1 sequence: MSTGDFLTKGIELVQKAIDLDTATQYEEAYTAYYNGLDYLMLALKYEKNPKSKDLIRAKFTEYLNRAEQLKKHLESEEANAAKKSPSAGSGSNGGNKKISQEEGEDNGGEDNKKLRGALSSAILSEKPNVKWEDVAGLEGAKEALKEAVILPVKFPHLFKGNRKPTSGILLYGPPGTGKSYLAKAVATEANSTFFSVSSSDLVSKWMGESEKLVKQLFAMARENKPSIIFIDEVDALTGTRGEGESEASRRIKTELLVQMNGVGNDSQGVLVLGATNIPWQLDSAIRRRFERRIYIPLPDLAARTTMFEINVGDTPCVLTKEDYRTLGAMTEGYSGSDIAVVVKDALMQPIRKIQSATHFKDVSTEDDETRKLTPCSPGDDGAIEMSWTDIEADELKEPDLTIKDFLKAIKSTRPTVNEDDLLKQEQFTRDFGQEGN

B1: GST-Bro1V(370-709) (domain or fragment)
chain: DVYEKESIYSEEKATLLRKQVEETETANLEYSSFIEFTNLPRLLSDLEKQFSDGNIFSNTDTQGQLMRDQIQTWCKFIQTNEFRDIEEQMNKIVFKRKQILEILSALPNDQKENVTKLKSSLVAASNSDEKLFACVKPHIVEINLLNDNGKIWKKFDEFNRNTPPQPSLLDIDDTKNDKILELLKQVKGHAEDLRTLKEERSRNLSELRDEINNDDITKLLIINKGKSDVELKDLFEVELEKFEPLSTRIEATIYKQSSMIDDIKAKLDEIFHLSNFKDKSSGEEKFLEDRKNFFDKLQEAVKSFSIFASDLPKGIEFYDSLFNMSRDLAERVRVAKQTE
B2: Bro1 V domain (Bro1V; aa 370-709) (domain or fragment)
chain: B1 chain
B3: Bro1V^M9 (T587D) (domain or fragment)
chain: B1 chain with T218D
B4: Bro1V^M4 (V505A, H508A, I512A) (domain or fragment)
chain: B1 chain with V136A, H139A, I143A
B5: Bro1V^M10 (K481D) (domain or fragment)
chain: B1 chain with K112D
B6: Bro1V^M8 (E686A, L691D) (domain or fragment, S. cerevisiae, UniProt P48582 370-709, looked up)
chain: B1 chain with E317A, L322D

Molecular target: T1, His6-Vps4
Test: pull-down

binding result	Binder
binds	B1
binds	B2
binds	B3
binds	B4
binds	B5

Molecular target: T1, His6-Vps4
Test: pull-down
Remark: another data set of the same source

binding result	Binder
binds	B6
